Target: SmBiT fused to the N-terminus of BCR-ABL
Test: NanoBiT split-luciferase complementation in cells, LgBiT and SmBiT at the N-terminus of BCR-ABL; complex induced by a homo-bifunctional small molecule (homo-PHICS)

fold increase in luminescence compared to the DMSO/background: 6 fold
Substance: LgBiT fused to the N-terminus of BCR-ABL (enzyme)

— patent publication US20240024490A1, “BIFUNCTIONAL MOLECULES FOR SELECTIVE MODIFICATION OF TARGET SUBSTRATES” (The Broad Institute, Inc., priority 2021, published 2024)
